Measured values reported in publication PMC3947452.

Target: Flag-tagged PKMζ (protein kinase M ζ) (human) (UniProt Q05513)
Experiment: co-IP

Chain of UniProt Q05513 (Q05513 184-592): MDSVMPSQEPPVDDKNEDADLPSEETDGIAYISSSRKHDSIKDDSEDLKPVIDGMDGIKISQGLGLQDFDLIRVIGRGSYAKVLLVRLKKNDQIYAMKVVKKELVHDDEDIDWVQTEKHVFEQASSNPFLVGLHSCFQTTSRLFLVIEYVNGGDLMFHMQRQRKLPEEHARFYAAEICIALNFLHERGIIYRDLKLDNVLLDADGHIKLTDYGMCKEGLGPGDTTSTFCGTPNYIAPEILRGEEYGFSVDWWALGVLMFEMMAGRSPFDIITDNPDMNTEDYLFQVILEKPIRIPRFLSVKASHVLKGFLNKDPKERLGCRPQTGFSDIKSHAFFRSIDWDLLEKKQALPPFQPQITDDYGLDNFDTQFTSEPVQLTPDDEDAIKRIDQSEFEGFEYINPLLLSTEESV

IC50: 60 nM
Substance: synthetic biotin-labeled peptide containing the binding motif (KIBRA position 948-978)
